Values of other authors in article PMC10746204.

Target: IFNAR2 (Homo sapiens) (UniProt P48551)
Chain of UniProt P48551 (P48551 27-243): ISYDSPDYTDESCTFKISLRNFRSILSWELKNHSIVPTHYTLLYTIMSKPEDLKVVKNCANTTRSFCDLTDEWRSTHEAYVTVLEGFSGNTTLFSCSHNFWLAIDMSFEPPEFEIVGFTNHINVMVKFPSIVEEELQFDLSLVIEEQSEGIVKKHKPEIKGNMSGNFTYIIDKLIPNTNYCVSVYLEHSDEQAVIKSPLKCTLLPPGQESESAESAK

Kd: 0.7 nM
Substance: IFNα14 (from UniProt P01570)
